Laboratory results reported in paper PMC3777401.

T1: FLAG-CTCF-6xHis (UniProt Q61164 1-736)
T1 sequence: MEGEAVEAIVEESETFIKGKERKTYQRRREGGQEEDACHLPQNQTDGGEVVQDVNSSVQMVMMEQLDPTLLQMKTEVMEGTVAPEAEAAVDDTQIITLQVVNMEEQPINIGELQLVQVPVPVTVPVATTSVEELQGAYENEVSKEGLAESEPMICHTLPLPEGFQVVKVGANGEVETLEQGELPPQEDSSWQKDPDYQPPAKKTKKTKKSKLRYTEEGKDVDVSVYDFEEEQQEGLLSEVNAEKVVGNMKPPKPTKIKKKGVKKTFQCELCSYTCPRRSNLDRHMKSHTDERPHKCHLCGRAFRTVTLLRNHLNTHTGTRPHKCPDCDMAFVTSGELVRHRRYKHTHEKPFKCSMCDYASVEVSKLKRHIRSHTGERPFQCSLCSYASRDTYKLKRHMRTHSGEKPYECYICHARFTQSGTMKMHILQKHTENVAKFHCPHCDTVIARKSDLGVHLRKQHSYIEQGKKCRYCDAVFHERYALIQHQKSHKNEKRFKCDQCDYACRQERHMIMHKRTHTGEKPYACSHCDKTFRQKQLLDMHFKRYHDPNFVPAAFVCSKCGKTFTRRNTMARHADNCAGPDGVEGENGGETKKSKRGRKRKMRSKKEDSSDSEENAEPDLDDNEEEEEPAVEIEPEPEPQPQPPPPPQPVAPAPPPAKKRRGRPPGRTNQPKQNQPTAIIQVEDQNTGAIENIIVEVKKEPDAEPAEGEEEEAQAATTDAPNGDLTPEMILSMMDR


Experiments:
FLAG-CTCF-6xHis [1] = target: T1, FLAG-CTCF-6xHis; assay: EMSA
FLAG-CTCF-6xHis [2] = target: T1, FLAG-CTCF-6xHis; assay: competition

Binder | binding result (FLAG-CTCF-6xHis [1]) | binding result (FLAG-CTCF-6xHis [2])
Xist_5' (dsDNA) DNA 1: TTTGGCTTCAGATGCCTTGGAAAGATTCATGCTGCCACCTGCTGGTTTATTCAGTCTGTGTGCATCATTTATTTACTTGT DNA 2: ACAAGTAAATAAATGATGCACACAGACTGAATAAACCAGCAGGTGGCAGCATGAATCTTTCCAAGGCATCTGAAGCCAAA | binds | 
P2 (dsDNA) DNA 1: GAATGTGTCTAAGATGGCGGAAGTCATGTGACCTGCCCTCTAGTGGTTTCTTTCAGTGATTTTTTTTTTGGCGGGCTTTA DNA 2: TAAAGCCCGCCAAAAAAAAAATCACTGAAAGAAACCACTAGAGGGCAGGTCACATGACTTCCGCCATCTTAGACACATTC |  | binds
P1 (dsDNA) DNA 1: TTGTGGCCACTCCTCTTCTGGTCTCTCCGCCTTCAGCGCCGCGGATCAGTTAAAGGCGTGCAACGGCTTGCTCCAGCCAT DNA 2: ATGGCTGGAGCAAGCCGTTGCACGCCTTTAACTGATCCGCGGCGCTGAAGGCGGAGAGACCAGAAGAGGAGTGGCCACAA | no binding | 
RS14C (dsDNA) DNA 1: CTATGCATTAGGTTTGGGTGTTATACCCGTGTAGGCCAGCAGAGGGTGTCGGATCCCAAGGAAACCAAGTTACAGACGCC DNA 2: GGCGTCTGTAACTTGGTTTCCTTGGGATCCGACACCCTCTGCTGGCCTACACGGGTATAACACCCAAACCTAATGCATAG | binds | 
